Consider 5 molecules from PMC3360202.

Data set [1] addresses T1, P1MYB (N6His-ZmP1MYB) (Zea mays, UniProt P27898 9-116). In words: competition.
Data set [2] has as its target T1, P1MYB (N6His-ZmP1MYB). In words: EMSA. (In general: Mobility shift assays separate free from complexed probe on a gel.)
Data set [3] addresses T1, P1MYB (N6His-ZmP1MYB). Description: EMSA. The source holds these as a separate data set.

T1 sequence (P27898 9-116): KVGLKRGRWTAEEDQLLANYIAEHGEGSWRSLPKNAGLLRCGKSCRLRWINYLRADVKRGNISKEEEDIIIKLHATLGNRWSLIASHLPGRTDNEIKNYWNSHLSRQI

B1: comp3 (dsDNA)
DNA 1: TAGATGTGATTCGTTAGGTGTGTTTTTATAA
DNA 2: TTATAAAAACACACCTAACGAATCACATCTA
B1: in data set [1], the binding result was “binds”.

B2: comp1 (dsDNA)
DNA 1: CTATTACTCGTTAGTTGGATTTTAGTTT
DNA 2: AAACTAAAATCCAACTAACGAGTAATAG
For B2, the binding result in data set [1] is “binds”.

B3: comp2 (dsDNA)
DNA 1: CCAAGTCAAAATCCAACCATTATCTCTTGA
DNA 2: TCAAGAGATAATGGTTGGATTTTGACTTGG
In the case of B3, the binding result in data set [1] is on record as “binds”.

B4: APB1 (dsDNA)
DNA 1: GATCCGGGTCAGTGTACCTACCAACCTTAAACAC
DNA 2: GATCGTGTTTAAGGTTGGTAGGTACACTGACCCG
B4: the binding result in data set [2] is given as “binds”.

B5: FLSbind (dsDNA)
DNA 1: GAGTTTCTGGTAGGTGCGTCGTACGGCCAG
DNA 2: CTGGCCGTACGACGCACCTACCAGAAACTC
Consider B5, for which the binding result in data set [3] is listed as “binds”.
